Measured values published in US20250382354A1.
Residue numbers refer to the chain shown, from its start.

B1: hr2.017 (antibody, V domains shown)
VH: EVQLVESGGGLVQPGGSLRLSCAVSGFAFSSSWMHWIRQAPGRGLVWVSRINRDGSTTDYADSVKGRFTISRDNAKATLYLQMNSLRAEDTAVYYCATMGFDYWGQGALVTVSS
VL: DIVMTQSPDSLAVSLGERATINCKSSQNVLYSSNNKNHLSWYQQKPGQPPKLLIYWASTRKSGVPDRFSGSGSGTDFTLTINSLQAEDVAVYYCQQYFSTPNTFGQGTKLEIK
B2: hr2.019 (antibody, V domains shown)
VH: EVQLVESGGGLVKPGGSLRLSCAASGSSVIDVWMNWVRQAPGKGLEWVGRIKTKASGAATDYGAPVKGRFTISRDDSKNLSYLQMNSLRAEDTGIYYCTTSPLPNFDYWGRGTLVTVSS
VL: DIVMTQSPDFLAVSLGETATINCRSSQSVFYFANNKNYLAWYQQKPGQPPKLLIYWASKRESGVPDRFSGSGSGTDFTLTISSLQAEDVATYYCQQYSSPAITFGPGTKVDIK
B3: hr2.020 (antibody, V domains shown)
VH: EVQLVQSGAEVKKPGESLKISCKGSGYRFASHWIGWVRQMPGKGLQWMGIIYPGDSDTKYSPSFQGQVTISADKSINTVYLHWTSLKASDTAVYYCARRPPHLDGGDSPIRFDHWGQGTLVTVSS
VL: QSVLTQPPSASGTPGQRVTISCSGSRSNIGSNDVYWYQQFPGTAPKLLIYRNNQRPSGVPDRFSGSKSGTSASLAISGLRSEDEADYYCATWDDRLTGVFGGGTKLTVV
B4: hr2.021 (antibody, V domains shown)
VH: QVQLVQSGAEVKKPGASVKVSCKASEAIFSGSYLHWVRQAPGQGLEWMGIITPSGDKTFYAQRFQGRLTMTRDTSTNTLHMHLSGLNSEDTAMYYCARQADKGGWDYWGQGTLVTVSS
VL: EIVLTQSPGTLSLSPGERATLSCRASQSVTSNYVAWYQQKPGQAPRLLIYGASTRATGIPDRFSGGGSGTDFTLTITRLEPEDFAVYYCQQYGSSPPTFTFGPGTKVDIK
B5: hr2.023 (antibody, V domains shown)
VH: QVQLVQSGAEVKKPGASVKVSCRASENIFSDSYLHWVRQAPGQGLEWMGIITPSGDKTFYAQQFQGRLTMTRDTPTNTLHMDLRGLTSADTAIYYCARQATKGGWDYWGQGTLVTVSS
VL: B4 VL with R18S, S31R, V34L, K40Q, T54N, I59V, G66S, T77S, T100I
B6: hr2.024 (antibody, V domains shown)
VH: QVQLVQSGAEVKKPGASVKVSCKASEDIFTDSYLHWVRQAPGQGLEWMGIITPSGDKTFYAQQFQGRLTMTRDPSTNTLYMFLSGLRSDDTAMYFCARQAEKGGWDYWGHGTLVTVSS
VL: B4 VL with E17Q, A25S, S28T, V29I, V34L, K40R, T54I, G66S, T77S, T100I
B7: hr2.018 (antibody, V domains shown)
VH: B2 VH with A23V, V32A, T53S, A55T, S56N, A59T, G63A, R89K, A90T
VL: not shown
B8: hr2.090 (antibody, V domains shown)
VH: EVQLLESGGGLVQPGGSLRLSCAASGVTFSRYAMSWVRQAPGKGLEWVSTISGGGGGTYYADSVKGRFTISRDNSKNTLYLQMNSLRAEDTAVYYCATLLTVPGPYYFEYWGQGTLVTVSS
VL: EIVLTQSPGTLSLSPGERATLSCRASQSVSSSYLAWYQQKPGQAPRLLIYGASSRATGIPDRFSGSGSGTDFTLTISRLESEDFAVYYCQHSRFTFGPGTRVDIK
B9: hr2.086 (antibody, V domains shown)
VH: EVQLLESGGGLVQPGGYLRLSCAASGFTFSSYAMSWVRQAPGKGLEWVSVISGGGGSAYYADSVKGRFTISRDNSKNTLYLQMNSLRAEDTAVYYCAKIGMILVFDYWGQGTLVTVSS
VL: EIVLTQSPGTLSLSPGERATLSCRASQSVSNNYLAWYQQKPGQAPRLLISGASSRATGIPDRFSGSGSGTDFTLTISRLEPEDFAVYYCQQYGSSPPTFGQGTKVEIK

biological target: HKU5 HR2 peptide (HKU5), A3EXD0; test: peptide ELISA

Row | Binder | EC50 [µg/mL]
1 | B1 | 0.0249
2 | B2 | 0.0505
3 | B3 | 0.0631
4 | B4 | 0.0551
5 | B5 | 0.0422
6 | B6 | 0.048

biological target: HKU4 HR2 peptide (HKU4), A3EX94; test: peptide ELISA

Row | Binder | EC50 [µg/mL]
7 | B1 | 0.0203
8 | B7 | 0.0417
9 | B2 | 0.0154
10 | B3 | 0.0352
11 | B4 | 0.021
12 | B5 | 0.0149
13 | B6 | 0.0184
14 | B8 | 0.425
15 | B9 | 0.0269

biological target: MHV HR2 peptide (MHV); test: peptide ELISA

Row | Binder | EC50 [µg/mL]
16 | B1 | 0.02
17 | B3 | 0.0285
18 | B4 | 0.0333
19 | B5 | 0.0106
20 | B6 | 0.0259
21 | B8 | 0.761

biological target: SARS-CoV-2 HR2 peptide (SARS-CoV-2), P0DTC2; test: peptide ELISA

Row | Binder | EC50 [µg/mL]
22 | B1 | 0.0145
23 | B7 | 0.0336
24 | B2 | 0.0267
25 | B3 | 0.0353
26 | B4 | 0.0242
27 | B5 | 0.0175
28 | B6 | 0.106
29 | B8 | 0.085
